The values that follow come from article PMC5986104.

The test has as its target NOTCH2-Myc (human) (UniProt Q04721).
Chain of UniProt Q04721 (Q04721 26-2471): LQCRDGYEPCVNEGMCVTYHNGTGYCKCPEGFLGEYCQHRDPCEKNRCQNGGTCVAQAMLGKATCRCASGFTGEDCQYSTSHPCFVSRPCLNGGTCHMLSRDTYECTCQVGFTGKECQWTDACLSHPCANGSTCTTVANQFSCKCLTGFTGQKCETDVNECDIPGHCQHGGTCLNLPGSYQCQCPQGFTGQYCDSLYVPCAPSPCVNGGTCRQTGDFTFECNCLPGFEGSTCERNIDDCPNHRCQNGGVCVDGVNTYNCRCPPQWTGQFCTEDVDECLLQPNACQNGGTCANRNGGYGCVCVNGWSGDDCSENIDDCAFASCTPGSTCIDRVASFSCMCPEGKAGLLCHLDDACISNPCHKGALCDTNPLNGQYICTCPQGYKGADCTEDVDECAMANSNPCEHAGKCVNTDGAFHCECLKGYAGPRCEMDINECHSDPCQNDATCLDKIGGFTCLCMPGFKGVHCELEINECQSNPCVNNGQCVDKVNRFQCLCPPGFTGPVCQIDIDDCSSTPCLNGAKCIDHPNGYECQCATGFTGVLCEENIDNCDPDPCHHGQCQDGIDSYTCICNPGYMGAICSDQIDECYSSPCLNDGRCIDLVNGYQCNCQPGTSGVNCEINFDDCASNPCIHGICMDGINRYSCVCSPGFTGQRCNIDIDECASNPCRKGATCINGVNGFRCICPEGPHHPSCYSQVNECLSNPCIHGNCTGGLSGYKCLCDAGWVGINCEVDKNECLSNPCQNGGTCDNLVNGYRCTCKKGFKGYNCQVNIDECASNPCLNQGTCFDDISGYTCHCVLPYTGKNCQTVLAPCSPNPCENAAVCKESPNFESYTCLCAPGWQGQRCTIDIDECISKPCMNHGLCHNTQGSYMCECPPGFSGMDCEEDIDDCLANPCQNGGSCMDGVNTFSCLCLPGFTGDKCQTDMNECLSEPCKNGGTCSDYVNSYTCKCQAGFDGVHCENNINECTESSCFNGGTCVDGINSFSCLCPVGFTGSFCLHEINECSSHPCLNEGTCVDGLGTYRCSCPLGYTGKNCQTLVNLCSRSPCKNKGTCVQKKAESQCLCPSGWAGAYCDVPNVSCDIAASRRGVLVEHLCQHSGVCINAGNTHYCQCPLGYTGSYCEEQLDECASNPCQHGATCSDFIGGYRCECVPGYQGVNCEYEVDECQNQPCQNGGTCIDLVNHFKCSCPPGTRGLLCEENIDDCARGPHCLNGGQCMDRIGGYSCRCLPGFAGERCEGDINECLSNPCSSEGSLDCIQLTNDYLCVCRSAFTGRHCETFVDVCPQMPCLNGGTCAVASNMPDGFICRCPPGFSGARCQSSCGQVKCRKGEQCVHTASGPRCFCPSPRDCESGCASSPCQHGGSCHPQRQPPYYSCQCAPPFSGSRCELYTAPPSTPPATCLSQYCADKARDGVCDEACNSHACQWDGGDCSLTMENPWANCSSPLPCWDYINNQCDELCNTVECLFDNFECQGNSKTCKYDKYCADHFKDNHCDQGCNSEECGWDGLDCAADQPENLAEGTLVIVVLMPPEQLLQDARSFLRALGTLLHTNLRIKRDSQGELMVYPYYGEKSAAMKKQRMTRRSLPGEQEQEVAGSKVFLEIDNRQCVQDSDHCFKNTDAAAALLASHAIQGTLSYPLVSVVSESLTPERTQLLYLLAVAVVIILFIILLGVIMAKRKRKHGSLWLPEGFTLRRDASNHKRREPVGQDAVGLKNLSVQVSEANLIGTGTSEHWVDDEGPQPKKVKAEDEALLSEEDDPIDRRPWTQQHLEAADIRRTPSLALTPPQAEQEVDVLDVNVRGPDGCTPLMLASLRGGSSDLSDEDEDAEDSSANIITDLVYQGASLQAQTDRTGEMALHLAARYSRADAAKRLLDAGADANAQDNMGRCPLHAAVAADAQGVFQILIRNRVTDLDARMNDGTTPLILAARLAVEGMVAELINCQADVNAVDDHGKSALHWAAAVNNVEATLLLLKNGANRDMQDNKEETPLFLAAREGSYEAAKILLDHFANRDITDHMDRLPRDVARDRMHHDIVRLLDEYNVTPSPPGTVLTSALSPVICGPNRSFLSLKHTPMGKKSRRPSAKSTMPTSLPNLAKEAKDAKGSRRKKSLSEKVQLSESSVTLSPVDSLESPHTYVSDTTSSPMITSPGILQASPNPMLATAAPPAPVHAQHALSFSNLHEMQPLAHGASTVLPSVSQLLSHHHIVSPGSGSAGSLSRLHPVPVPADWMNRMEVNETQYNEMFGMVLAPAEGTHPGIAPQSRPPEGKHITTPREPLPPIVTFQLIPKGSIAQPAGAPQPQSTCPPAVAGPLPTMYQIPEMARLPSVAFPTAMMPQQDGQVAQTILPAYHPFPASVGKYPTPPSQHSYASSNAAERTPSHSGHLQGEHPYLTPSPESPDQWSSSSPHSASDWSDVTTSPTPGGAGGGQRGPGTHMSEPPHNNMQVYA

On to NOTCH2NL^Sh,T197I (natural protein), for which the NOTCH2-GAL4 reporter activation under baseline conditions, increase (Figure 6H) is 31% and the NOTCH2-GAL4 reporter activation with JAG2 co-culture, increase (Figure 6I) came to 53%.
Substance “NOTCH2NL-HA^L,T197I (from UniProt P0DPK3 26-275) (natural protein)” had an NOTCH2-GAL4 reporter activation under baseline conditions, increase (Figure 6J) of 63%.
The substance “NOTCH2NL^L (from UniProt P0DPK3 26-275) (natural protein)” gave an NOTCH2-GAL4 reporter activation under baseline conditions, increase (Figure 6J) of 21%.
